Laboratory results published in patent publication US5981488.

Biological target: rat GLP-1 receptor (rat) (UniProt P32301)

Row | Substance | Percent receptor affinities (cAMP production by the membrane preparation, fluorescent tracer-immuno assay)
1 | Met-8 GLP-1(7-36)NH2 (peptide) | 16.6%
2 | Thr-8 GLP-1(7-37)OH (peptide) | 2.8%
